Measured values published in paper PMC7692546.

Key:
[1] = molecular target: F. hepatica cathepsin L3 (Fasciola hepatica); assay: enzyme inhibition (fluorogenic peptide substrate); KT inhibitor (2 μM) incubated with each protease in 100 μl reaction buffer for 15 min at 37 °C, then fluorogenic substrate; inhibition constants by the Morrison equation for tight-binding inhibition
[2] = molecular target: F. hepatica cathepsin L3 (Fasciola hepatica)
Bovine trypsin (bovine) [3] = molecular target: Bovine trypsin (bovine)
[4] = molecular target: Human cathepsin L (human); assay: enzyme inhibition (fluorogenic peptide substrate); KT inhibitor (2 μM) incubated with each protease in 100 μl reaction buffer for 15 min at 37 °C, then fluorogenic substrate; inhibition constants by the Morrison equation for tight-binding inhibition
Bovine trypsin (bovine) [5] = assay: as above
[6] = molecular target: Human cathepsin K (human) (UniProt P43235); assay: as above
[7] = molecular target: F. hepatica cathepsin L2 (Fasciola hepatica); assay: as above
[8] = molecular target: F. hepatica cathepsin L1 (Fasciola hepatica); assay: as above

Chain of Human cathepsin K (human) (P43235 115-329): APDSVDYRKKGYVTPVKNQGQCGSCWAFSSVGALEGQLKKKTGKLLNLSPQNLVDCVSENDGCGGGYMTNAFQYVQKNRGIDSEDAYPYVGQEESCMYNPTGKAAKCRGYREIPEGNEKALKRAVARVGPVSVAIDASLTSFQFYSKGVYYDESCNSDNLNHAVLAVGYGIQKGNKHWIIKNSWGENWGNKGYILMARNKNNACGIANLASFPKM

Substance | Ki [1] [nM] | reduction of FhCL3 activity at 2 μM inhibitor (fluorogenic substrate) [2] [%] | reduction in trypsin activity at 2 μM inhibitor (fluorogenic substrate) (Bovine trypsin (bovine) [3]) [%] | Ki [4] [nM] | Ki (Bovine trypsin (bovine) [5]) [nM] | Ki [6] [nM] | Ki [7] [nM] | Ki [8] [nM]
Recombinant FhKT1.1 (Fasciola hepatica Kunitz-type inhibitor 1.1) (natural protein) | 1.8 | 93.1 | – | – | – | – | – | –
Recombinant FhKT1.3 (Fasciola hepatica Kunitz-type inhibitor 1.3) (natural protein) | 3.2 | – | 99.2 | 2.6 | 1.8 | 5.5 | 10.6 | 0.6
rFhKT1.1Arg^19/Ala^19 (natural protein) | 32.8 | – | – | 0.3 | – | 18.5 | 35 | 4.2
rFhKT1.1Leu^15/Arg^15 (natural protein) | 3.6 | – | – | – | – | – | – | –
